Experimental data reported in paper PMC6879491 (Nature Communications, 2019).

Tests used:
Assay in all cases: cell-bound Gaussia luciferase activity (equilibrium binding on intact cells); Jurkat (CD3, CD45) or U266 (HLA-A2) cells, 1 h at 37 °C with increasing concentrations of GpL fusion proteins, washed five times with ice-cold PBS; specific binding = total minus non-specific
Settings in all cases: partners not purified
HLA-A2 on cells = target: T1, HLA-A2 on cells (Homo sapiens, HLA-A*02:01 (allele …, strain))
T1 construct: HLA-A2 on the surface of HLA-A2-positive human cell lines; source: on THP-1 cells (functional assays)

CD45 on cells = target: T2, CD45 on cells (Homo sapiens (Jurkat, THP-1), UniProt P08575)
T2 construct: CD45 on the surface of human cell lines; also called pan-hematopoietic lineage marker CD45; source: on THP-1 cells (functional assays)
T2 sequence (P08575 26-1306): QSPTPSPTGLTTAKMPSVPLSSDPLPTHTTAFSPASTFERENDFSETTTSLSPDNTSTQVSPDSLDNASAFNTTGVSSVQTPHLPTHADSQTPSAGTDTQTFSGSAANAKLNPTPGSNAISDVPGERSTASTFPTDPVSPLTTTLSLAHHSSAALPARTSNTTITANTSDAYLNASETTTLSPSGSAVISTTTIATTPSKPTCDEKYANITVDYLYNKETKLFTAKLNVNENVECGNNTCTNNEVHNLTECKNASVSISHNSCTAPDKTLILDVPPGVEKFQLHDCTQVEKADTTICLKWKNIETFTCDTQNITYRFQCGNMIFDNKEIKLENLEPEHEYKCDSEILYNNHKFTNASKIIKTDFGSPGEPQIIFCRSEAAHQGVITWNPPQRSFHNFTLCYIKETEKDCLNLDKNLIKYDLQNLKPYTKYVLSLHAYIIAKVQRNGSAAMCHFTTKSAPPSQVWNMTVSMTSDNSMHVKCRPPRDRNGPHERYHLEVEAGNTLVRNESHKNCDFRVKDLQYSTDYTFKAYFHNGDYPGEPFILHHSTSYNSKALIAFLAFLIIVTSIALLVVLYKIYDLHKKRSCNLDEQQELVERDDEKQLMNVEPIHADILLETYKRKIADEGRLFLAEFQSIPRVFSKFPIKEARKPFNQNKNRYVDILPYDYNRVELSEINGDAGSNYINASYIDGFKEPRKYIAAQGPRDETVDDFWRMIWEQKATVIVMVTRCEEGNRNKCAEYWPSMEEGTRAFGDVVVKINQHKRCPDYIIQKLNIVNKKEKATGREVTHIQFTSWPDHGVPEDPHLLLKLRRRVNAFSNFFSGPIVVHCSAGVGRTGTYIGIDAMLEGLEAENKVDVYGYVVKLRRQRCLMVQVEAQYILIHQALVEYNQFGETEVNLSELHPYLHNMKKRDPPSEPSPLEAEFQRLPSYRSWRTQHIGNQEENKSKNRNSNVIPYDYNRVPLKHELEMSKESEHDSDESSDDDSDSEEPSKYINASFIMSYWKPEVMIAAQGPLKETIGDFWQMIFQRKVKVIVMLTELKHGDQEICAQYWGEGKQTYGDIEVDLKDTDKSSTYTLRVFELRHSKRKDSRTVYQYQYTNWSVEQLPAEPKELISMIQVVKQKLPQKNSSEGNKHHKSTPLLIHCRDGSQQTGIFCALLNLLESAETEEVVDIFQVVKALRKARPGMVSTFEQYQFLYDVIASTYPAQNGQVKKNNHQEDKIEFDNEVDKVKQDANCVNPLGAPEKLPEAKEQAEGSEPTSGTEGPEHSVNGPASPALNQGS

CD3 on Jurkat cells = target: T3, CD3 on Jurkat cells (Homo sapiens (Jurkat, donor T cells), UniProt P07766)
T3 construct: CD3ε, the chain addressed by the diL2K scFv, on the surface of CD3-positive cells; On cells CD3ε stands within the TCR-CD3 complex; also called CD3ε; CD3 antigen; source: on donor T cells (functional assays)

B1: scFvαHLA-A2-GpL (scFv, V domains shown)
VH: QVQLVQSGGGVVQPGGSLRVSCAASGVTLSDYGMHWVRQAPGKGLEWMAFIRNDGSDKYYADSVKGRFTISRDNSKKTVSLQMSSLRAEDTAVYYCAKNGESGPLDYWYFDLWGRGTLVTVSS
VL: DVVMTQSPSSLSASVGDRVTITCQASQDISNYLNWYQQKPGKAPKLLIYDASNLETGVPSRFSGSGSGTDFTFTISSLQPEDFATYYCQQYSSFPLTFGGGTKVDIK
notes: scFv of the human anti-HLA-A2/A28 antibody clone 3PF12 (VH GenBank AF163307, VL GenBank AF163308); as the scFv of m1 (GenBank MN432902); Expression plasmid pCR3; also called scFvHLA-A2-GpL; anti-HLA-A2 scFv fused to Gaussia princeps luciferase; source: Hek293, electroporated, secreted, in supernatant
- Kd (HLA-A2 on cells): 0.9 nM

B2: scFvαCD45-GpL (scFv, V domains shown)
VH: QVQLVESGGGLVQPGGSLKLSCAASGFDFSRYWMSWVRQAPGKGLEWIGEINPTSSTINFTPSLKDKVFISRDNAKNTLYLQMSKVRSEDTALYYCARGNYYRYGDAMDYWGQGTSVTVSG
VL: DIVLTQSPASLAVSLGQRATISCRASKSVSTSGYSYLHWYQQKPGQPPKLLIYLASNLESGVPARFSGSGSGTDFTLNIHPVEEEDAATYYCQHSRELPFTFGSGTKLEIK
notes: as the scFv of m2 (GenBank MN432904); Expression plasmid pCR3; also called scFvCD45-GpL; anti-CD45 scFv fused to Gaussia princeps luciferase; source: Hek293, electroporated, secreted, in supernatant
- Kd (CD45 on cells): 11.8 nM

B3: scFvαCD3-GpL (scFv, V domains shown)
VH: DVQLVQSGAEVKKPGASVKVSCKASGYTFTRYTMHWVRQAPGQGLEWIGYINPSRGYTNYADSVKGRFTITTDKSTSTAYMELSSLRSEDTATYYCARYYDDHYCLDYWGQGTTVTVSS
VL: DIVLTQSPATLSLSPGERATLSCRASQSVSYMNWYQQKPGKAPKRWIYDTSKVASGVPARFSGSGSGTDYSLTINSLEAEDAATYYCQQWSSNPLTFGGGTKVEIK
notes: scFv of the anti-CD3ε antibody diL2K (de-immunized version of mouse monoclonal L2K); as the anti-CD3 scFv of m3 (GenBank MN432903); Expression plasmid pCR3; also called scFvCD3-GpL; anti-CD3 scFv fused to Gaussia princeps luciferase; source: Hek293, electroporated, secreted, in supernatant
- Kd (CD3 on Jurkat cells): 11.1 nM
